Assay [1] concerns the target human NPR1 on HEK293/hNPR1 cells (human) (UniProt P16066). In words: cell-based or functional assay.
The target of assay [2] is dog NPR1 extracellular domain expressed with a C-terminal myc-myc-hexahistidine (dog). In words: SPR Biacore 8K, mAb captured via anti-hFc, 25 C.
The target of assay [3] is human NPR1 extracellular domain expressed with a C-terminal myc-myc-hexahistidine (human) (UniProt P16066). In words: SPR Biacore 8K, mAb captured via anti-hFc, 25 C.
For assay [4], the target named is monkey NPR1 extracellular domain expressed with a C-terminal myc-myc-hexahistidine (monkey). In words: SPR Biacore 8K, mAb captured via anti-hFc, 25 C.
Assay [5] concerns the target mouse NPR1 extracellular domain expressed with a C-terminal myc-myc-hexahistidine (mouse) (UniProt P18293). In words: SPR Biacore 8K, mAb captured via anti-hFc, 25 C.
The target of assay [6] is pig NPR1 extracellular domain expressed with a C-terminal myc-myc-hexahistidine (pig). In words: SPR Biacore 8K, mAb captured via anti-hFc, 25 C.
In assay [7] the target is dog NPR1 extracellular domain expressed with a C-terminal myc-myc-hexahistidine (dog). In words: SPR Biacore 8K, mAb captured via anti-hFc, 37 C.
Assay [8] concerns the target human NPR1 extracellular domain expressed with a C-terminal myc-myc-hexahistidine (human) (UniProt P16066). In words: SPR Biacore 8K, mAb captured via anti-hFc, 37 C.
In assay [9] the target is monkey NPR1 extracellular domain expressed with a C-terminal myc-myc-hexahistidine (monkey). In words: SPR Biacore 8K, mAb captured via anti-hFc, 37 C.
For assay [10], the target named is mouse NPR1 extracellular domain expressed with a C-terminal myc-myc-hexahistidine (mouse) (UniProt P18293). In words: SPR Biacore 8K, mAb captured via anti-hFc, 37 C.
Assay [11] deals with pig NPR1 extracellular domain expressed with a C-terminal myc-myc-hexahistidine (pig). In words: SPR Biacore 8K, mAb captured via anti-hFc, 37 C.
For assay [12], the target named is hNPR1-MMH in the presence of hANP (receptor-ligand complex) (human) (UniProt P01160). In words: SPR Biacore 8K, mAb captured via anti-hFc, 25 C, 10-fold hANP present.
Assay [13] has the same target. In words: SPR Biacore 8K, mAb captured via anti-hFc, 37 C, 10-fold hANP present.
For assay [14], the target named is human NPR1 extracellular domain expressed with a C-terminal myc-myc-hexahistidine (human) (UniProt P16066). In words: SPR Biacore 4000, mAb captured via anti-hFc, 37 C, binding pH 7.4, dissociation pH 7.4.
Assay [15] addresses monkey NPR1 extracellular domain expressed with a C-terminal myc-myc-hexahistidine (monkey). Described as above.
The target in assay [16] is human NPR1 extracellular domain expressed with a C-terminal myc-myc-hexahistidine (human) (UniProt P16066). In words: SPR Biacore 4000, mAb captured via anti-hFc, 37 C, binding pH 7.4, dissociation pH 6.0.
Assay [17] has as its target monkey NPR1 extracellular domain expressed with a C-terminal myc-myc-hexahistidine (monkey). Described as above.

human NPR1 extracellular domain expressed with a C-terminal myc-myc-hexahistidine (human), sequence (P16066 other isoform, or with tags, fused parts or gaps): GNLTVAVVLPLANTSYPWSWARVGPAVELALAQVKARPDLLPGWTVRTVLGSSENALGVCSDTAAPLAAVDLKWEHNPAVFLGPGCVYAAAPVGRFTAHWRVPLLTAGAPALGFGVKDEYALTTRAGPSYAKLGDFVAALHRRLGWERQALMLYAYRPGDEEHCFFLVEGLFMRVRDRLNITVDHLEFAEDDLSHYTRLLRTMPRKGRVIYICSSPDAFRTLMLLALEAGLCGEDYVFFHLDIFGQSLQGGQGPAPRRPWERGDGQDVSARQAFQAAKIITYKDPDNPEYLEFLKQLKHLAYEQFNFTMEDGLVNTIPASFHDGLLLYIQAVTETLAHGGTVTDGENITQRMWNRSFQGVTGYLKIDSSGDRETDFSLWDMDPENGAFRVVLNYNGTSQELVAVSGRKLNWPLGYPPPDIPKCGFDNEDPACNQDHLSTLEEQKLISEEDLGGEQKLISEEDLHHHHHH
monkey NPR1 extracellular domain expressed with a C-terminal myc-myc-hexahistidine (monkey), sequence (P16066 other isoform, or with tags, fused parts or gaps): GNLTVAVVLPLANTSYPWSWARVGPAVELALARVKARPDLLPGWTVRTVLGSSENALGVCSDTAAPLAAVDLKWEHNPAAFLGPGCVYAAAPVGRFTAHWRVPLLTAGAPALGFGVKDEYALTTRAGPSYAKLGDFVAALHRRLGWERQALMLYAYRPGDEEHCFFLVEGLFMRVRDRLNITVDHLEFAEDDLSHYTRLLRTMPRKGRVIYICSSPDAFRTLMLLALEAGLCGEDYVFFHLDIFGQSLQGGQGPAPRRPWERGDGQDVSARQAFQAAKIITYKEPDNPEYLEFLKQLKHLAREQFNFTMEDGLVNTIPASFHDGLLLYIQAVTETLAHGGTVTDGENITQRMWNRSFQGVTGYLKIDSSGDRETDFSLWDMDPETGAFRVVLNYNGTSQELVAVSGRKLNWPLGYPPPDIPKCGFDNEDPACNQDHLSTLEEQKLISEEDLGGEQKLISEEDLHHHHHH
human NPR1 on HEK293/hNPR1 cells (human), sequence (P16066 33-1061): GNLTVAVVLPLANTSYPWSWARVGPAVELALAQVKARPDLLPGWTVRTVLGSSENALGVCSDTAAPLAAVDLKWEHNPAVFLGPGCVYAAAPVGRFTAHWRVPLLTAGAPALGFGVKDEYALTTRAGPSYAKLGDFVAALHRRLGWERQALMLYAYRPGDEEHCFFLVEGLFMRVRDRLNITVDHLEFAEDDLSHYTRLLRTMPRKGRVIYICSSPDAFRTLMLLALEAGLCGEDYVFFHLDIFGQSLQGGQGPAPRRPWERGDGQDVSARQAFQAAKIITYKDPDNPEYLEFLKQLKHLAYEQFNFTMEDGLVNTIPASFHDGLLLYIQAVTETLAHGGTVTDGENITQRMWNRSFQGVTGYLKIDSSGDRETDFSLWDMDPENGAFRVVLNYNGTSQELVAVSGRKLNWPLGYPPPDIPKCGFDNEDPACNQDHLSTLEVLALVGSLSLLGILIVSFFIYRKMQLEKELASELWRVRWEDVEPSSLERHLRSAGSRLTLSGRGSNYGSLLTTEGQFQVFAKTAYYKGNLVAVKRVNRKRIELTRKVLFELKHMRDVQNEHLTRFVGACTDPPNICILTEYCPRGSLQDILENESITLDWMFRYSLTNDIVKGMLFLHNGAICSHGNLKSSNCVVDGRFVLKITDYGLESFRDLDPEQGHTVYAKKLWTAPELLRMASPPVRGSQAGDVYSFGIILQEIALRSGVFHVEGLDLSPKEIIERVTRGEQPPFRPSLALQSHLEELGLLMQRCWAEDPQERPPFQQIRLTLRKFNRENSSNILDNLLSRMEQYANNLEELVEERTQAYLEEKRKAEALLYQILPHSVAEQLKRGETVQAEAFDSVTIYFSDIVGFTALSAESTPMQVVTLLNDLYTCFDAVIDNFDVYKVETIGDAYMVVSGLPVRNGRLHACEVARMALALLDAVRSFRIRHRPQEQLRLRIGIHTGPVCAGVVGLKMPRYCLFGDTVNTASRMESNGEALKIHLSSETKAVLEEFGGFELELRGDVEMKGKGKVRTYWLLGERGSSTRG
hNPR1-MMH in the presence of hANP (receptor-ligand complex) (human), sequence (P01160 124-151 limits assumed, chain 2 of 2): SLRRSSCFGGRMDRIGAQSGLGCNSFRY
mouse NPR1 extracellular domain expressed with a C-terminal myc-myc-hexahistidine (mouse), sequence (P18293 other isoform, or with tags, fused parts or gaps): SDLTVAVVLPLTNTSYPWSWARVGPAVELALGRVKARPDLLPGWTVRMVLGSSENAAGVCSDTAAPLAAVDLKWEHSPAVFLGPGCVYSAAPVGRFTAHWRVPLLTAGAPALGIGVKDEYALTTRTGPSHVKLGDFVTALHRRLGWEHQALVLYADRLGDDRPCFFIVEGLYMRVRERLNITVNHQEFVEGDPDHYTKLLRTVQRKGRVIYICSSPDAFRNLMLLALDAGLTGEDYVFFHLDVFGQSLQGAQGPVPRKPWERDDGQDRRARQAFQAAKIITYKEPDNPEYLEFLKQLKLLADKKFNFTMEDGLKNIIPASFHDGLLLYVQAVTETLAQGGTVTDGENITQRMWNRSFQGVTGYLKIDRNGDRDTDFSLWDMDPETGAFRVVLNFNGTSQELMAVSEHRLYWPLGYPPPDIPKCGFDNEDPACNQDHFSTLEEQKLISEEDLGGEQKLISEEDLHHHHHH
pig NPR1 extracellular domain expressed with a C-terminal myc-myc-hexahistidine (pig), sequence (chain, as listed by the source limits assumed): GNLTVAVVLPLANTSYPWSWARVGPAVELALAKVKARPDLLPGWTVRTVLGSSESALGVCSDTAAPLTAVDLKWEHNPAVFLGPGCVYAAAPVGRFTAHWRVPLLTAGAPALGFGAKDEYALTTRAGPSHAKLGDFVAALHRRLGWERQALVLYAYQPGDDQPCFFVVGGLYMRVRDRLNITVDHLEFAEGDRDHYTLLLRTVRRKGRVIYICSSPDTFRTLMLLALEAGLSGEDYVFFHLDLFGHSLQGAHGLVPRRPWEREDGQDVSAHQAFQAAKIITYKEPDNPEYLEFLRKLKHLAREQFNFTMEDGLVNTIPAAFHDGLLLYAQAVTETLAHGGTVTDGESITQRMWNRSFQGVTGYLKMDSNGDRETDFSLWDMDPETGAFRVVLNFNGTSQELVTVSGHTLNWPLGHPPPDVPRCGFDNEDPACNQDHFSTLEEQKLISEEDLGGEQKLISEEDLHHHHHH
dog NPR1 extracellular domain expressed with a C-terminal myc-myc-hexahistidine (dog), sequence (chain, as listed by the source limits assumed): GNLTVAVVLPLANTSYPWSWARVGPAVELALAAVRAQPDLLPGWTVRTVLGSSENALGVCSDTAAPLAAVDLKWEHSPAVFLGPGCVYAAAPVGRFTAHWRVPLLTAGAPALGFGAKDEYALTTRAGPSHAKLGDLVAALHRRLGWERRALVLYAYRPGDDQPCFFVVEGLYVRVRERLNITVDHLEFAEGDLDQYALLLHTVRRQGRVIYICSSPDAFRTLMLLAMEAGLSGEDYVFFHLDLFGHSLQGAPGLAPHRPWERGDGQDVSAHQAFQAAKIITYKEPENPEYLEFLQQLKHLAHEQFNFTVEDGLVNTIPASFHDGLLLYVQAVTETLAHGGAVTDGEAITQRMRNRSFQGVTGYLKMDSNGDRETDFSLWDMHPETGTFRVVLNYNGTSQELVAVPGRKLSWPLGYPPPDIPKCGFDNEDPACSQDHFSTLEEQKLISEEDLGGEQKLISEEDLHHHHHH

For Isotype control (antibody), the Max Kill, %, secondary ADC mediated cytotoxicity, no ligand in assay [1] is 0.01%. Moreover, in assay [1], the Max Kill, %, secondary ADC mediated cytotoxicity, with 100 nM ANP was -4%. In assay [1], this substance displayed a Max Kill, %, secondary ADC mediated cytotoxicity, with 100 nM BNP of 0.5%. For the same substance, the Max inh., %, cGMP accumulation assay, with 0.2 nM ANP in assay [1] is -1%. Besides, in assay [1], the Max inh., %, cGMP accumulation assay, with 0.7 nM BNP is -9%. The 40 nM Ag Bound (RU) in assay [2] stood at 0 RU; in assay [3], 0 RU; in assay [4], 1 RU; in [5], 0 RU; in assay [6], 0 RU; in [7], 0 RU. For the same substance, the 40 nM Ag Bound (RU) in assay [8], in assay [9], in assay [10], in assay [11], in assay [12] and in assay [13] was 0 RU throughout. For the same substance, the 30 nM Ag Bound (RU) in assay [14] is 2 RU; in assay [15] it was 1 RU; in [16] it was 2 RU; in assay [17], 2 RU.

The record behind these values is US20230250170A1.
